According to paper PMC12876990, “Targeting secreted PLA2 interactions with EGFR and vimentin to arrest prostate tumour growth” (Cell Death & Disease, 2025):
Square brackets hold non-standard residues; d marks the D form. 2Nal = N[C@@H](Cc1ccc2ccccc2c1)C(=O)O

Target: T1, vimentin coil 2 (purified fragment)
T1 construct: vimentin, coil 2 fragment, purified; PDB 3TRT was used only for docking; also called second coil of vimentin; source: purified
Experiment: ELISA; competition enzyme immunoassay: vimentin coil 2 coated on the plate (15 µg/mL); hGIIA 100 ng/mL in PBS with 0.1% BSA mixed with c2 0.1-100 µM in DMSO, 37 °C, 2 h; detected with 4A1-alkaline phosphatase
Details: both partners purified

IC50: 56.5 µM
B1: c2 (cyclo-((2-Nal)-Leu-Ser-(2-Nal)-Arg)) (peptide)
chain: cyclo([2Nal]LS[2Nal]R)
SMILES: CC(C)C[C@@H]1NC(=O)[C@H](Cc2ccc3ccccc3c2)NC(=O)[C@H](CCCNC(=N)N)NC(=O)[C@H](Cc2ccc3ccccc3c2)NC(=O)[C@H](CO)NC1=O
